This note sets out measurements from PMC5726764 (Biotechnology and bioengineering, 2017).

The target in assay [1] is T1, dodecapeptide antigen DVFYPYPYASGS (as used in biolayer interferometry) (synthetic peptide).
T1 chain: DVFYPYPYASGS
In words: BLI.

Assay [2] has as its target scFv-2D10, single-chain antibody of mAb 2D10. In words: ITC. On the technique in general: Isothermal titration calorimetry measures the heat released or taken up as one component is titrated into another.
The target of assay [3] is scFv-1 (120_6290_1), de novo designed single-chain antibody. Kind of assay: ITC.
The target in assay [4] is scFv-2 (120_15439_2), de novo designed single-chain antibody. In words: BLI. In general terms: BLI is a label-free optical method that tracks binding on a fibre tip over time.
Assay [5] has the same target. Kind of assay: BLI. The source holds these as a separate data set.
For assay [6] the target is unchanged. Kind of assay: BLI. This is another data set of the same source.
Assay [7] has as its target scFv-1 (120_6290_1), de novo designed single-chain antibody. Kind of assay: BLI.
Assay [8] deals with scFv-4 (140_15899_5), de novo designed single-chain antibody. In words: BLI.
Assay [9] deals with scFv-2 (120_15439_2), de novo designed single-chain antibody. Kind of assay: BLI. The source holds these as a separate data set.

Like-named read-outs stand apart in the source and are kept apart here.

B1: scFv-2D10, single-chain antibody of mAb 2D10 (scFv, V domains shown)
VH: EIQLQQSGPELVKPGASVKISCKASGYSFTDYIMLWVKQSHGKSLEWIGNINPYYGSTSYNLKFKGKATLTVDKSSSTAYMQLNSLTSEDSAVYYCARKNYYGSSLDYWGQGTTLTVSS
VL: DVVMTQTPFSLPVSLGDQASISCRSSQSLVHSNGNTYLHWYLQKPGQSPKLLIYKVSNRFSGVPDRFSGSGSGTDFTLKISRVEAEDLGVYFCSQSTHVPYTFGGGTKLEIK
For B1, in assay [1], the Kd worked out at 3.8 nM and the on-rate constant (kon) came to 206000 M⁻¹ s⁻¹.

In assay [2], DVFYPYPYASGS [dodecapeptide antigen …, not conjugated to BSA (as used in ITC)] displayed a Kd of 1 nM and a stoichiometry N of 1. The stoichiometry N in [3] was 1.

As for DVFYPYPYASGS [dodecapeptide antigen … (as used in biolayer interferometry)], the equilibrium dissociation constant (Kd) in assay [4] was determined as 17.5 nM; in assay [5] it was 2.55 nM; in [6], 14.4 nM; in [7], 8.9 nM; in [8], 23.8 nM; in [9], 21.5 nM. Moreover, the figures for the kobs in [6], in assay [7] and in assay [8] were 0.0041 s⁻¹, 0.0033 s⁻¹ and 0.0039 s⁻¹, respectively. The koff stood at 0.00132 s⁻¹ in assay [6] and 0.00171 s⁻¹ in assay [8].

A word on the Kd: it is the concentration at which binding is half-saturated. Read a high Kd as a looser complex. One may read the kon as a measure of how fast the partners come together. As usually defined, the stoichiometry N is the number of molecules, sites or subunits per partner or assembly. As a reminder, the koff is the rate constant with which the complex falls apart.
